± gives the uncertainty stated by the source.
Assay: protein stability index of a GFP-peptide fusion (yeast GPS) (PSI 1-4); higher = more stable; sorted into four equal gates, so the index is relative within each strain
Procedure, shortened: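 Plasmids isolated from each sorting gate were PCR-amplified and Illumina-sequenced, and barcodes assigned the reads to strains. The gates, four of equal size, were set by GFP/Cherry fluorescence ratio on mid-log cultures in leucine-free medium. These cultures were yeast carrying a pooled library of tiled 17-residue yeast protein peptides fused downstream of GFP on a plasmid that also expresses Cherry. The protein stability index is the sum of every gate's read frequency times its gate number.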

Sequence | protein stability index (doa10∆) | protein stability index (pdr5∆) | protein stability index (san1∆) | protein stability index (ubr1∆)
ITGEKLDTQLNDLRVSL [SMC1] | 1.3 ± 0.068 | 2 ± 0.076 | 1.58 ± 0.18 | 1.16 ± 0.032
KKCLKLAYENKITDKED [POP4] | 2.698 ± 0.022 | 2.785 ± 0.027 | 2.797 ± 0.02 | 3.032 ± 0.025
VTYSRVSKKVDVRRLKK [BRN1] | – | 1.32 ± 0.14 | – | 3.23 ± 0.15
IVTEQPSAEIREAYIEN [SWP82] | 2.47 ± 0.062 | 2.88 ± 0.062 | 2.74 ± 0.073 | 2.2 ± 0.065
AIKWDGSSGGVIRMVVL [PRE3] | 2.56 ± 0.084 | 1.92 ± 0.071 | 2.71 ± 0.1 | 1.75 ± 0.049
LNKAGKPFRQTKFKVRG [RPL38] | 2.78 ± 0.12 | 3.33 ± 0.069 | 3.19 ± 0.11 | 3.04 ± 0.081
IDVLLEQTTGGNNKDLK [RPB4] | – | 3.68 ± 0.27 | – | 3.5 ± 0.079
LKDIEARIKEKAGVKES [RPT1] | 2.38 ± 0.27 | 3.42 ± 0.19 | 3.22 ± 0.11 | 3.31 ± 0.081
PIVLLNTLRKCYPQFAE [UBP6] | 1.25 ± 0.11 | 1.26 ± 0.073 | 1.14 ± 0.16 | 1.19 ± 0.12
KQAHEKLDASKKQQAAL [YIL149C/MLP2] | 3.08 ± 0.064 | 2.88 ± 0.052 | 3.25 ± 0.059 | 3 ± 0.057
YDPQRDKRFSGSLKLPN [RPL1A] | 3.09 ± 0.065 | 3.33 ± 0.068 | 3.02 ± 0.052 | 3.08 ± 0.048
KLKFFPSGEALISSSQD [RPN14] | 2.92 ± 0.23 | – | – | –
CPNSTGAELRSVCTEAG [RPT1] | 1.54 ± 0.053 | 1.56 ± 0.058 | 1.65 ± 0.098 | 1.55 ± 0.047
YEILLKILITYGSSPKL [SRB8] | 1.27 ± 0.055 | 1.6 ± 0.053 | 1.35 ± 0.092 | 1.47 ± 0.055
VDSKTKEPVDDKDVKAK [FAS2] | 2.31 ± 0.24 | – | 2.28 ± 0.13 | 3.28 ± 0.16
SEKRLDHFIHLRNLHMK [SNF12] | 2.75 ± 0.051 | 2.73 ± 0.043 | 2.74 ± 0.052 | 2.62 ± 0.037
RPTGGANMATVPSTTNV [MED6] | 2.66 ± 0.062 | 2.93 ± 0.06 | 2.42 ± 0.17 | 2.91 ± 0.04
ANGTFMDFGVDPSMDPE [RPN10] | 2.87 ± 0.12 | 3.05 ± 0.091 | 2.65 ± 0.12 | 2.87 ± 0.085
GSGAPVYLTAVLEYLAA [HTA1] | 1.64 ± 0.076 | 1.7 ± 0.077 | 1.55 ± 0.12 | 1.75 ± 0.045
QQQQQQQQQQQQQQQQQ [GAL11] | 2.57 ± 0.032 | 2.78 ± 0.028 | 2.661 ± 0.026 | 2.903 ± 0.023
TYANVLIPCKYLNRHAD [RPN7] | 1.1 ± 0.08 | 1.25 ± 0.089 | 1.18 ± 0.13 | 1.19 ± 0.095
QRVFDETEQEYSPSNEI [YDL116W/NUP84] | 3.28 ± 0.067 | 3.46 ± 0.069 | 3.21 ± 0.058 | 3.29 ± 0.043
AKVVVTTSRFSKQVTDY [FAS2] | 3.08 ± 0.084 | 2.71 ± 0.082 | 3.12 ± 0.055 | 3.15 ± 0.058
QTGTKPVLKKKAAFLGS [COR1] | 2.99 ± 0.064 | 3.14 ± 0.085 | 3.04 ± 0.076 | 3.16 ± 0.058
LVHSEYLINGKRFKRKD [SRP68] | 2.68 ± 0.16 | 2.79 ± 0.065 | 2.84 ± 0.076 | 2.67 ± 0.038

Sequence | protein stability index (doa10∆) | protein stability index (pdr5∆) | protein stability index (san1∆) | protein stability index (ubr1∆)
QKKVPDKLLDPTTVSYI [SCL1] | 2.9 ± 0.05 | 2.28 ± 0.047 | 2.4 ± 0.056 | 2.67 ± 0.044
PLSGLLFKNYRFNFISK [YMR129W/POM152] | 2.85 ± 0.11 | 2.17 ± 0.07 | 1.73 ± 0.098 | 2.25 ± 0.094
TNNGNDDNETENPNFWR [GRR1] | 2.74 ± 0.066 | 3.16 ± 0.05 | 2.37 ± 0.053 | 2.75 ± 0.041
STSIQYHGISKNDNIKK [POP6] | 2.79 ± 0.068 | 2.9 ± 0.055 | 2.89 ± 0.043 | 2.92 ± 0.05
KDPSPEILVLYNVCDTS [SIN4] | 2.8 ± 0.071 | 2.9 ± 0.06 | 2.82 ± 0.058 | 2.88 ± 0.12
DKEWVFAALSDSYGQGS [SSN2] | 3.18 ± 0.11 | 3.46 ± 0.1 | 3.1 ± 0.13 | 3.34 ± 0.09
LSNCLANARDFGEWAGM [BRR2] | 2.35 ± 0.089 | 2.41 ± 0.095 | 2.28 ± 0.17 | 2.45 ± 0.07
PDMMVDSFTMPNISHSN [SNF2] | 3.28 ± 0.11 | 2.84 ± 0.098 | 2.72 ± 0.087 | 3.18 ± 0.093
CCYFIEWKSNHKKKRSN [SRB8] | 1.81 ± 0.048 | 2.08 ± 0.054 | 2.1 ± 0.073 | 1.92 ± 0.048
SFFVSVRKAITVLFFIG [FAS1] | 1.48 ± 0.087 | 1.34 ± 0.11 | – | 1.09 ± 0.041
DNCCDFKVRTNLNDKFG [MED1] | 2.74 ± 0.19 | 3.22 ± 0.2 | 2.79 ± 0.15 | 3.08 ± 0.092
SLAPEADLDSLIIRNDS [RPT3] | 2.92 ± 0.11 | 3.01 ± 0.08 | 2.77 ± 0.055 | 2.82 ± 0.071
IIKERALLSKVKWVHMI [SNF2] | 1.37 ± 0.059 | 1.23 ± 0.061 | 1.34 ± 0.088 | 1.18 ± 0.042
IIDGPKALILAPTRELV [PRP28] | 1.59 ± 0.062 | 2.32 ± 0.053 | 1.89 ± 0.1 | 1.68 ± 0.052
EREIMNDHSKSANPKKT [SWI3] | 3.29 ± 0.077 | 3.3 ± 0.084 | 3.3 ± 0.16 | 3.31 ± 0.065
PIVEDRRVKQLDDITDS [SIR4] | – | 1.49 ± 0.19 | 1.31 ± 0.21 | 1.64 ± 0.12
ENIIIVGGTTSISGFKE [ARP9] | 2.13 ± 0.092 | 2.2 ± 0.06 | 2.64 ± 0.07 | 2.88 ± 0.054
IVSPQSNKPCMGIVQDT [RPO21] | 1.74 ± 0.064 | 1.68 ± 0.047 | 1.76 ± 0.098 | 1.58 ± 0.046
YLNLLQEDELDEGTALS [RPB10] | 3.38 ± 0.11 | 3.3 ± 0.13 | 3.4 ± 0.11 | 3.18 ± 0.16
KSHNAHVRCGTAFALGI [RPN2] | 1.72 ± 0.27 | 2.41 ± 0.1 | 2.18 ± 0.14 | 1.8 ± 0.075
RAEAKAQGVAVQLKRQP [RPL21A] | 2.75 ± 0.096 | 2.19 ± 0.08 | 1.71 ± 0.12 | 2.46 ± 0.11
RESTKALTRGEALLVVL [RPS12] | – | 3.49 ± 0.16 | – | 3.4 ± 0.045
DKSIDTSSLQLYKFQNF [YML103C/NUP188] | 2.67 ± 0.064 | 3.05 ± 0.086 | 2.7 ± 0.055 | 2.99 ± 0.055
KVVLKALFLSKINRPPV [RPL18A] | 2.28 ± 0.12 | 1.53 ± 0.067 | 1.41 ± 0.16 | 1.46 ± 0.083
VSEKAFLLTQSKVSIEQ [RPN7] | 3.21 ± 0.18 | – | – | 2.8 ± 0.14
